# Reference: patent US20230051304A1 (Regeneron, published 2023)
# Like-named read-outs stand apart in the source and are kept apart here.
# What was measured:
# [1] = target: T1, murine IL12 receptor complex (IL12Rβ1 and IL12Rβ2) (mouse, UniProt Q60837 20-738; P97378 24-874); test: cell-based or functional assay
# [2] = target: T1, murine IL12 receptor complex (IL12Rβ1 …); test: cell-based or functional assay; remark: listed apart in the source
# [3] = target: T1, murine IL12 receptor complex (IL12Rβ1 …); test: cell-based or functional assay; remark: listed apart in the source
# [4] = target: T1, murine IL12 receptor complex (IL12Rβ1 …); test: flow cytometry on activated primary mouse T cells (CD25+ CD8+ CD90.2+), anti-human Fc detection, MFI
# Procedure: Spleens were harvested from C57BL/6 mice and dissociated manually. Splenocytes were stimulated by culturing for 48 hours in RPMI+10% FBS+2 mM L-glutamine/Pen/Strep in the presence of anti-CD3 and anti-CD28 activation beads (Thermo/11456D) at a 1:3 (beads:splenocytes) ratio and in the presence of 30 U/mL human IL-2 (proleukin). […] Cells were washed once before plating 200,000 cells per well in a 96-well plate and staining indicated concentration of test IL12-Fc fusion proteins or variant molecules for 2 hours on ice. Cells were washed twice before staining for the Fc portion using an ahuFC antibody (Jackson Immuno 109-136-170). Data was acquired using a BD LSRFortessa™ X-20 instrument. Data plots represent geometric mean fluorescence intensity (MFI) of the ahuFC signal from CD25+, CD8+CD90.2+ T cells.
# T1 sequence (Q60837 20-738, chain 1 of 2): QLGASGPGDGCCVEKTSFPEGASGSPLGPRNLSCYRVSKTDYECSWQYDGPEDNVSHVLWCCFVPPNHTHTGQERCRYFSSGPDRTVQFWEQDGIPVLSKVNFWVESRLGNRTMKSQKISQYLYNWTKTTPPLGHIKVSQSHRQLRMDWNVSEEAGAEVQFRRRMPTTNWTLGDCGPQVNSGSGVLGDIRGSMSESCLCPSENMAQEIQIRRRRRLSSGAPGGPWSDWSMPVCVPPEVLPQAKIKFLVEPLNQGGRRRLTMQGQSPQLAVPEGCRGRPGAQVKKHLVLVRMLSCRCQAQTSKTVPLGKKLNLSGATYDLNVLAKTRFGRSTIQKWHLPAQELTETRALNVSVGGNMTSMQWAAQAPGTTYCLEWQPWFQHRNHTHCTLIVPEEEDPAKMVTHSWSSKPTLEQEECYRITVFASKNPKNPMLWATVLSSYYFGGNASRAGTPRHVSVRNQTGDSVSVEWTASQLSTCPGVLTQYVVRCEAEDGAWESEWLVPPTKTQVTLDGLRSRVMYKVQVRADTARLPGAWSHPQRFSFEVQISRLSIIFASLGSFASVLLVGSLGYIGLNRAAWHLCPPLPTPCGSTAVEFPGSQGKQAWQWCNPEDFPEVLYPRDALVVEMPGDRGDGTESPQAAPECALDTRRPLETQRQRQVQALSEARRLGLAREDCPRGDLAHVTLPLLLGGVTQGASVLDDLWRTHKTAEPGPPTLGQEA
# T1 sequence (P97378 24-874, chain 2 of 2): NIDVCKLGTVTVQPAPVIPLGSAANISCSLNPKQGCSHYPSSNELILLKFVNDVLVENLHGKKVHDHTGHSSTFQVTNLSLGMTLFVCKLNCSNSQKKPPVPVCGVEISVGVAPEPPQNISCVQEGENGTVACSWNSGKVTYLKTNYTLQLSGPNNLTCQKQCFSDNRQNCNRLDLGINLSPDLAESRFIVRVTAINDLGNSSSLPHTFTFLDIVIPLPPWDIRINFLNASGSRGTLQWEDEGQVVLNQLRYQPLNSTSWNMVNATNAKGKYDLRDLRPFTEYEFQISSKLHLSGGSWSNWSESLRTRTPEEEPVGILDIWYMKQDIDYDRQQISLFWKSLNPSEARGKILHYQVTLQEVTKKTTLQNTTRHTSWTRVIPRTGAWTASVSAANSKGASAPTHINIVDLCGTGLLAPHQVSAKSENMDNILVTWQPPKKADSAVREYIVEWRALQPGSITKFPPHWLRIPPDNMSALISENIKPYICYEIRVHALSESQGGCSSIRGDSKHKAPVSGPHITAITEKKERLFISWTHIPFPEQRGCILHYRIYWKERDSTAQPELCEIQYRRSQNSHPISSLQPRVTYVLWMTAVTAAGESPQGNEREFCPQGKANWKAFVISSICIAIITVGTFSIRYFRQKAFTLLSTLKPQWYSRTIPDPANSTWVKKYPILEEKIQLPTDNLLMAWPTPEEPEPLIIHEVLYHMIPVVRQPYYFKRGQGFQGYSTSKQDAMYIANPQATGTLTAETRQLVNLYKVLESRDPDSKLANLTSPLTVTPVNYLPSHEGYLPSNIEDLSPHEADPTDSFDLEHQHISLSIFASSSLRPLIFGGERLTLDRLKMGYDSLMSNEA
Binder,"EC50 (M); STAT3-Luc reporter, CTLL2/STAT3-Luc cells [3]","Max fold induction; STAT3-Luc reporter, CTLL2/STAT3-Luc cells [3]",further results
Bivalent: Fc-IL12(p40-p35) (Fc fusion) ESKYGPPCPPCPAPPVAGPSVFLFPPKPKDTLMISRTPEVTCVVVDVSQEDPEVQFNWYVDGVEVHNAKTKPREEQFNSTYRVVSVLTVLHQDWLNGKEYKCKVSNKGLPSSIEKTISKAKGQPREPQVYTLPPSQEEMTKNQVSLTCLVKGFYPSDIAVEWESNGQPENNYKTTPPVLDSDGSFFLYSRLTVDKSRWQEGNVFSCSVMHEALHNHYTQKSLSLSLGKGGGGSGGGGSGGGGSMWELEKDVYVVEVDWTPDAPGETVNLTCDTPEEDDITWTSDQRHGVIGSGKTLTITVKEFLDAGQYTCHKGGETLSHSHLLLHKKENGIWSTEILKNFKNKTFLKCEAPNYSGRFTCSWLVQRNMDLKFNIKSSSSSPDSRAVTCGMASLSAEKVTLDQRDYEKYSVSCQEDVTCPTAEETLPIELALEARQQNKYENYSTSFFIRDIIKPDPPKNLQMKPLKNSQVEVSWEYPDSWSTPHSYFSLKFFVRIQRKKEKMKETEEGCNQKGAFLVEKTSTEVQCKGGNVCVQAQDRYYNSSCSKWACVPCRVRSGGGGSGGGGSGGGGSRVIPVSGPARCLSQSRNLLKTTDDMVKTAREKLKHYSCTAEDIDHEDITRDQTSTLKTCLPLELHKNESCLATRETSSTTRGSCLPPQKTSLMMTLCLGSIYEDLKMYQTEFQAINAALQNHNHQQIILDKGMLVAIDELMQSLNHNGETLRQKPPVGEADPYRVKMKLCILLHAFSTRVVTINRVMGYLSSA,9.95e-11 M,12.2 fold,"EC50 (M); STAT3-Luc reporter, CTLL2/STAT3-Luc cells [1]: 1.85e-11 M; Fold induction at 6.25 nM; STAT3-Luc reporter, CTLL2/STAT3-Luc cells [1]: 6.73 fold; Max fold induction; STAT3-Luc reporter, CTLL2/STAT3-Luc cells [1]: 7.66 fold; EC50 (M); STAT3-Luc reporter, CTLL2/STAT3-Luc cells [2]: 6.11e-11 M; Fold induction at 20 nM; STAT3-Luc reporter, CTLL2/STAT3-Luc cells [2]: 12.8 fold; Max fold induction; STAT3-Luc reporter, CTLL2/STAT3-Luc cells [2]: 14.4 fold"
"Fc-p40-p35 x Fc (Fc fusion, hIgG4s(HoleStar) x hIgG4s(Knob)-p40-p35, murine IL12; also called Fc-p40-p35×Fc control; unmasked monovalent control) chain 1: ESKYGPPCPPCPAPPVAGPSVFLFPPKPKDTLMISRTPEVTCVVVDVSQEDPEVQFNWYVDGVEVHNAKTKPREEQFNSTYRVVSVLTVLHQDWLNGKEYKCKVSNKGLPSSIEKTISKAKGQPREPQVYTLPPSQEEMTKNQVSLSCAVKGFYPSDIAVEWESNGQPENNYKTTPPVLDSDGSFFLVSRLTVDKSRWQEGNVFSCSVMHEALHNRFTQKSLSLSPGK chain 2: ESKYGPPCPPCPAPPVAGPSVFLFPPKPKDTLMISRTPEVTCVVVDVSQEDPEVQFNWYVDGVEVHNAKTKPREEQFNSTYRVVSVLTVLHQDWLNGKEYKCKVSNKGLPSSIEKTISKAKGQPREPQVYTLPPSQEEMTKNQVSLWCLVKGFYPSDIAVEWESNGQPENNYKTTPPVLDSDGSFFLYSRLTVDKSRWQEGNVFSCSVMHEALHNHYTQKSLSLSLGKGGGGSGGGGSGGGGSMWELEKDVYVVEVDWTPDAPGETVNLTCDTPEEDDITWTSDQRHGVIGSGKTLTITVKEFLDAGQYTCHKGGETLSHSHLLLHKKENGIWSTEILKNFKNKTFLKCEAPNYSGRFTCSWLVQRNMDLKFNIKSSSSSPDSRAVTCGMASLSAEKVTLDQRDYEKYSVSCQEDVTCPTAEETLPIELALEARQQNKYENYSTSFFIRDIIKPDPPKNLQMKPLKNSQVEVSWEYPDSWSTPHSYFSLKFFVRIQRKKEKMKETEEGCNQKGAFLVEKTSTEVQCKGGNVCVQAQDRYYNSSCSKWACVPCRVRSGGGGSGGGGSGGGGSRVIPVSGPARCLSQSRNLLKTTDDMVKTAREKLKHYSCTAEDIDHEDITRDQTSTLKTCLPLELHKNESCLATRETSSTTRGSCLPPQKTSLMMTLCLGSIYEDLKMYQTEFQAINAALQNHNHQQIILDKGMLVAIDELMQSLNHNGETLRQKPPVGEADPYRVKMKLCILLHAFSTRVVTINRVMGYLSSA",–,–,binding result [4]: binds
Fc-IL12(mutein 14) (Fc fusion) ESKYGPPCPPCPAPPVAGPSVFLFPPKPKDTLMISRTPEVTCVVVDVSQEDPEVQFNWYVDGVEVHNAKTKPREEQFNSTYRVVSVLTVLHQDWLNGKEYKCKVSNKGLPSSIEKTISKAKGQPREPQVYTLPPSQEEMTKNQVSLTCLVKGFYPSDIAVEWESNGQPENNYKTTPPVLDSDGSFFLYSRLTVDKSRWQEGNVFSCSVMHEALHNHYTQKSLSLSLGKGGGGSGGGGSGGGGSMWELEKDVYVVEVDWTPDAPGETVNLTCDTPEEDDITWTSDQRHGVIGSGKTLTITVKAALDAGQYTCHKGGETLSHSHLLLHKKENGIWSTEILKNFKNKTFLKCEAPNYSGRFTCSWLVQRNMDLKFNIKSSSSSPDSRAVTCGMASLSAEKVTLDQRDYEKYSVSCQEDVTCPTAEETLPIELALEARQQNKYENYSTSFFIRDIIKPDPPKNLQMKPLKNSQVEVSWEYPDSWSTPHSYFSLKFFVRIQRKKEKMKETEEGCNQKGAFLVEKTSTEVQCKGGNVCVQAQDRYYNSSCSKWACVPCRVRSGGGGSGGGGSGGGGSRVIPVSGPARCLSQSRNLLKTTDDMVKTAREKLKHYSCTAEDIDHEDITRDQTSTLKTCLPLELHKNESCLATRETSSTTRGSCLPPQKTSLMMTLCLGSIYEDLKMYQTEFQAINAALQNHNHQQIILDKGMLVAIDELMQSLNHNGETLRQKPPVGEADPYRVKMKLCILLHAFSTRVVTINRVMGYLSSA,3.79e-09 M,7.31 fold,–
Fc-IL12(mutein 17) (Fc fusion) ESKYGPPCPPCPAPPVAGPSVFLFPPKPKDTLMISRTPEVTCVVVDVSQEDPEVQFNWYVDGVEVHNAKTKPREEQFNSTYRVVSVLTVLHQDWLNGKEYKCKVSNKGLPSSIEKTISKAKGQPREPQVYTLPPSQEEMTKNQVSLTCLVKGFYPSDIAVEWESNGQPENNYKTTPPVLDSDGSFFLYSRLTVDKSRWQEGNVFSCSVMHEALHNHYTQKSLSLSLGKGGGGSGGGGSGGGGSMWELEKDVYVVEVDWTPDAPGETVNLTCDTPEEDDITWTSDQRHGVIGSGKTLTITVKEFLDAGQYTCHKGGETLSHSHLLLHKKENGIWSTAILKNFKNKTFLKCEAPNYSGRFTCSWLVQRNMDLKFNIKSSSSSPDSRAVTCGMASLSAEKVTLDQRDYEKYSVSCQEDVTCPTAEETLPIELALEARQQNAYENYSTSFFIRDIIKPDPPKNLQMKPLKNSQVEVSWEYPDSWSTPHSYFSLKFFVRIQRKKEKMKETEEGCNQKGAFLVEKTSTEVQCKGGNVCVQAQDRYYNSSCSKWACVPCRVRSGGGGSGGGGSGGGGSRVIPVSGPARCLSQSRNLLKTTDDMVKTAREKLKHYSCTAEDIDHEDITRDQTSTLKTCLPLELHKNESCLATRETSSTTRGSCLPPQKTSLMMTLCLGSIYEDLKMYQTEFQAINAALQNHNHQQIILDKGMLVAIDELMQSLNHNGETLRQKPPVGEADPYRVKMKLCILLHAFSTRVVTINRVMGYLSSA,3.53e-10 M,9.67 fold,–
Fc-IL12(mutein 15) (Fc fusion) ESKYGPPCPPCPAPPVAGPSVFLFPPKPKDTLMISRTPEVTCVVVDVSQEDPEVQFNWYVDGVEVHNAKTKPREEQFNSTYRVVSVLTVLHQDWLNGKEYKCKVSNKGLPSSIEKTISKAKGQPREPQVYTLPPSQEEMTKNQVSLTCLVKGFYPSDIAVEWESNGQPENNYKTTPPVLDSDGSFFLYSRLTVDKSRWQEGNVFSCSVMHEALHNHYTQKSLSLSLGKGGGGSGGGGSGGGGSMWELEKDVYVVEVDWTPDAPGETVNLTCDTPEEDDITWTSDQRHGVIGSGKTLTITVKAALDAGQYTCHKGGETLSHSHLLLHAKENGIWSTEILKNFKNKTFLKCEAPNYSGRFTCSWLVQRNMDLKFNIKSSSSSPDSRAVTCGMASLSAEKVTLDQRDYEKYSVSCQEDVTCPTAEETLPIELALEARQQNKYENYSTSFFIRDIIKPDPPKNLQMKPLKNSQVEVSWEYPDSWSTPHSYFSLKFFVRIQRKKEKMKETEEGCNQKGAFLVEKTSTEVQCKGGNVCVQAQDRYYNSSCSKWACVPCRVRSGGGGSGGGGSGGGGSRVIPVSGPARCLSQSRNLLKTTDDMVKTAREKLKHYSCTAEDIDHEDITRDQTSTLKTCLPLELHKNESCLATRETSSTTRGSCLPPQKTSLMMTLCLGSIYEDLKMYQTEFQAINAALQNHNHQQIILDKGMLVAIDELMQSLNHNGETLRQKPPVGEADPYRVKMKLCILLHAFSTRVVTINRVMGYLSSA,–,1.18 fold,–
Fc-IL12(mutein 16) (Fc fusion) ESKYGPPCPPCPAPPVAGPSVFLFPPKPKDTLMISRTPEVTCVVVDVSQEDPEVQFNWYVDGVEVHNAKTKPREEQFNSTYRVVSVLTVLHQDWLNGKEYKCKVSNKGLPSSIEKTISKAKGQPREPQVYTLPPSQEEMTKNQVSLTCLVKGFYPSDIAVEWESNGQPENNYKTTPPVLDSDGSFFLYSRLTVDKSRWQEGNVFSCSVMHEALHNHYTQKSLSLSLGKGGGGSGGGGSGGGGSMWELEKDVYVVEVDATPDAPGETVNLTCDTPEEDDITWTSDQRHGVIGSGKTLTITVKEALDAGQYTCHKGGETLSHSHLLLHKKENGIWSTEILKNFKNKTFLKCEAPNYSGRFTCSWLVQRNMDLKFNIKSSSSSPDSRAVTCGMASLSAEKVTLDQRDYEKYSVSCQEDVTCPTAEETLPIELALEARQQNKYENYSTSFFIRDIIKPDPPKNLQMKPLKNSQVEVSWEYPDSWSTPHSYFSLKFFVRIQRKKEKMKETEEGCNQKGAFLVEKTSTEVQCKGGNVCVQAQDRYYNSSCSKWACVPCRVRSGGGGSGGGGSGGGGSRVIPVSGPARCLSQSRNLLKTTDDMVKTAREKLKHYSCTAEDIDHEDITRDQTSTLKTCLPLELHKNESCLATRETSSTTRGSCLPPQKTSLMMTLCLGSIYEDLKMYQTEFQAINAALQNHNHQQIILDKGMLVAIDELMQSLNHNGETLRQKPPVGEADPYRVKMKLCILLHAFSTRVVTINRVMGYLSSA,1.67e-08 M,2.48 fold,–
